Test results taken from paper PMC3458569 (Nucleic Acids Research, 2012).
Where a chain is given by its changes, count along the chain named. Names and notes keep the numbering of the source. Blank lines part the entries; values can stand above or below the binder they belong to.

Legend:
UvrB wild type = biological target: T1, UvrB wild type (Bacillus subtilis, UniProt P37954 1-661); experiment: X-ray crystallography
T1 sequence: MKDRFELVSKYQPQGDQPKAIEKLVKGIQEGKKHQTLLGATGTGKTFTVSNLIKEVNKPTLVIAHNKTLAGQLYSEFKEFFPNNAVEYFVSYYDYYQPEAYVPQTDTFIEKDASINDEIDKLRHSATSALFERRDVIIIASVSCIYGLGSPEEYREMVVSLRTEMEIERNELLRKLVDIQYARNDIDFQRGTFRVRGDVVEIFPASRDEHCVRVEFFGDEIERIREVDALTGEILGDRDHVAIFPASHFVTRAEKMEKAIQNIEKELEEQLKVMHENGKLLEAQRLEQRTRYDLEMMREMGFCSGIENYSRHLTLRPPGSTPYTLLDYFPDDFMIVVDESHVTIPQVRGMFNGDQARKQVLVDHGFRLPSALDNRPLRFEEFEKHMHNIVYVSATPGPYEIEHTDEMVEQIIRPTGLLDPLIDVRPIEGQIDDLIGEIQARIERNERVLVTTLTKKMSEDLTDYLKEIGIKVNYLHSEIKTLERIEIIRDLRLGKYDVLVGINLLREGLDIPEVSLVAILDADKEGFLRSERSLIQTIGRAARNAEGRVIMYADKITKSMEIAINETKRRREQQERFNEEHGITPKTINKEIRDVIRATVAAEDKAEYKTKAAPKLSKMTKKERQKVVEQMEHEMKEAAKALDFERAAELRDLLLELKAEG

crystal structure = biological target: the molecule itself; experiment: crystal structure
Bacillus subtilis UvrA = Bacillus subtilis UvrA (Bacillus subtilis, UniProt O34863 1-957); experiment: native gel or EMSA
DEER = biological target: the molecule itself; experiment: DEER
cross-linking = biological target: the molecule itself; experiment: cross-linking

Bacillus subtilis UvrA, sequence (O34863 whole entry): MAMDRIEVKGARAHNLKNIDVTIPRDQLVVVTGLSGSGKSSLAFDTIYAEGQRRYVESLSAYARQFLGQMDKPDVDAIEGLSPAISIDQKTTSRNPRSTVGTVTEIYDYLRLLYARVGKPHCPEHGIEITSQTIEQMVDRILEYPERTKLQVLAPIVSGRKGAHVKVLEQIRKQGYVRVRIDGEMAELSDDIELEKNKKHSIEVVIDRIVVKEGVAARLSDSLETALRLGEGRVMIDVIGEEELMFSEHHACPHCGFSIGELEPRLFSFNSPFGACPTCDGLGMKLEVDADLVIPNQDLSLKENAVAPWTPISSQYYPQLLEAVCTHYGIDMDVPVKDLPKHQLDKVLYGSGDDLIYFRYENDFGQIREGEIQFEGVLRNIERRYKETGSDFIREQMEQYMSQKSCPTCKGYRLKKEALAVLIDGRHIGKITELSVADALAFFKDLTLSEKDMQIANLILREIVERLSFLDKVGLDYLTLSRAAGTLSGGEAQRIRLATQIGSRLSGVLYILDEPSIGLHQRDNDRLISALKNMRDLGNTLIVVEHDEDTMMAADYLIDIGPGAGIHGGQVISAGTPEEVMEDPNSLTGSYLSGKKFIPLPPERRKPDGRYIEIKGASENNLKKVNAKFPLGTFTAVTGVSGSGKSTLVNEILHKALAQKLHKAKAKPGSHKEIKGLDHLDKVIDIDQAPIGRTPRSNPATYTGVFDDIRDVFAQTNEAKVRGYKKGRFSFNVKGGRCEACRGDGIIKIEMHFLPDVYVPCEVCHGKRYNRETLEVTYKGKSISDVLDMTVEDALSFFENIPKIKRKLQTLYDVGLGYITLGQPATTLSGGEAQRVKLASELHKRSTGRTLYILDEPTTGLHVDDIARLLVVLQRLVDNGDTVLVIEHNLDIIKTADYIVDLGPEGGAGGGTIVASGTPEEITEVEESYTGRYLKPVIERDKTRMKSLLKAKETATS

Binder: TACTGTTT (ssDNA, T-fluorescein at position 6) [TACTG(TF6)TT 8-mer]
binding result (UvrB wild type): binds

binding result (Bacillus subtilis UvrA): binds
B1: Bacillus subtilis UvrB (wild type) (natural protein)
chain: T1 sequence
stoichiometry N (crystal structure): 2

B2: Bacillus subtilis UvrB T481C mutant, spin labeled with PROXYL (natural protein)
chain: T1 sequence with T481C
modifications: nitroxide spin label 3-(2-iodoacetamido)-proxyl (PROXYL) on C481
binding result (DEER): binds

B3: Bacillus subtilis UvrB T481C mutant (natural protein)
chain: T1 sequence with T481C
binding result (cross-linking): binds
